Data reported in doi:10.1101/2025.08.01.667454 (bioRxiv, 2025).

B1: PU.1[1–117] (domain or fragment, human, UniProt P17947 1-117, looked up)
chain: MLQACKMEGFPLVPPPSEDLVPYDTDLYQRQTHEYYPYLSSDGESHSDHYWDFHPHHVHSEFESFAENNFTELQSVQPPQLQQLYRHMELEQMHVLDTPMVPPHPSLGHQVSYLPRM
B2: BAF60A^YLD+SWIB (BAF60A residues 144-407) (domain or fragment, human, UniProt Q96GM5 144-407, looked up)
chain: SQAYMDLLAFERKLDQTIMRKRLDIQEALKRPIKQKRKLRIFISNTFNPAKSDAEDGEGTVASWELRVEGRLLEDSALSKYDATKQKRKFSSFFKSLVIELDKDLYGPDNHLVEWHRTATTQETDGFQVKRPGDVNVRCTVLLMLDYQPPQFKLDPRLARLLGIHTQTRPVIIQALWQYIKTHKLQDPHEREFVICDKYLQQIFESQRMKFSEIPQRLHALLMPPEPIIINHVISVDPNDQKKTACYDIDVEVDDTLKTQMNSF

Columns and labels:
[1] = molecular target: B2; test: ITC
[2] = molecular target: B2; test: fluorescence polarisation
[3] = molecular target: B2; test: fluorescence polarisation; remark: listed apart in the source
PU.1^FL S75A = PU.1^FL S75A (human, UniProt P17947 1-270, S75A); test: fluorescence polarisation
PU.1[61–270] = PU.1[61–270] (human, UniProt P17947 61-270); test: ITC
[4] = molecular target: MBP-tagged full-length PU.1 (human, UniProt P17947 1-270); test: ITC

## B1
[1]
  Kd: 2.8 µM

## SEFESFAENNFTELQSVQPPQLQQLYRHMELEQMHVLDTPM (peptide, UniProt P17947 60-100, looked up) [PU.1[60–100]]
[1]
  Kd: 1.25 µM

## FTELQSVQPPQLQQLYRHMELEQMHVLDTPM (peptide, UniProt P17947 70-100, looked up) [PU.1[70–100]]
[2]
  IC50: 2.37 µM
[1]
  Kd: 2.57 µM

## CEFESFAENNFTELQSVQPPQLQQLYRHMELEQMHVLDTPM (peptide, UniProt P17947 60-100, looked up, BODIPY TMR C5 maleimide on the cysteine introduced at position 60) [PU.1[60–100]^TMR]
[3]
  Kd: 0.92 µM

## CEFESFAENNFTELQSVQPPQLQQLYRHMELEQMHVLDTPM (peptide, UniProt P17947 60-100, looked up) [PU.1^60C-100]
[2]
  binding result: binds

## B2
PU.1^FL S75A
  binding result: binds
PU.1[61–270]
  Kd: 3.23 µM
[4]
  Kd: 1.26 µM
  stoichiometry N: 1
